{"source": "patent US20250313631A1", "about": "(HUMMINGBIRD BIOSCIENCE PTE, published 2025)", "key": {"[1]": {"target": "T1, recombinant mouse VISTA (His-tagged) (mouse, UniProt Q9D659 33-191)", "T1 construct": "also called murine VISTA; mVISTA", "T1 sequence (looked up)": "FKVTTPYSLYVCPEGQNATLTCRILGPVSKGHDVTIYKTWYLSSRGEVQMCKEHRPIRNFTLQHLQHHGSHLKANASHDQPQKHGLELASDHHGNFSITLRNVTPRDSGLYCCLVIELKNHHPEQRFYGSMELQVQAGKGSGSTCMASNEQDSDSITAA", "test": "ELISA, target protein coated, % Binding against log M of antibody", "experimental": "(§1) ELISAs were used to determine the binding specificity of the antibodies.\n(§2) Briefly, 96-well plates (Nunc, Denmark) were coated with 1 μg/ml of target protein in phosphate-buffered saline (PBS) for 2 h at 37° C. After blocking for 1 h with 10% BSA in Tris buffer saline (TBS) at room temperature, the test antibody was serially diluted (12 point serial dilution) with the highest concentration being 30 μg/ml and added to the plate, in the. Post 1 h incubation at room temperature, plates were washed three times with TBS containing 0.05% Tween 20 (TBS-T) and were then incubated with a HRP-conjugated anti-mouse IgG antibody (Life Technologies, Inc., USA) for 1 h at room temperature. After washing, plates were developed with colorimetric detection substrate 3,3′,5,5′-tetramethylbenzidine (Turbo-TMB; Pierce, USA) for 15 min at room temperature."}, "human PD-L1": {"target": "T2, human PD-L1 (human, UniProt Q9NZQ7 19-239)", "T2 construct": "captured through a His tag in the BLI experiments; also called hPD-L1; B7H1/PDL-1", "T2 sequence (Q9NZQ7 19-239 limits assumed)": "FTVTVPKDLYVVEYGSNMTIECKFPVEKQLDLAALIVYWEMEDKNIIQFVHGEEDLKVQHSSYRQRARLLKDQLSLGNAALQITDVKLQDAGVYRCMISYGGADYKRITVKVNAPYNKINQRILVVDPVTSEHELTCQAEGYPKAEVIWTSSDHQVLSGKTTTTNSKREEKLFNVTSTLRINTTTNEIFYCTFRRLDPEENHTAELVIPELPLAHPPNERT", "test": "ELISA, target protein coated, % Binding against log M of antibody", "experimental": "as §1, §2"}, "[2]": {"target": "T3, recombinant human VISTA (His-tagged) (human, UniProt Q9H7M9 33-194)", "T3 construct": "bought soluble protein (Sino Biological); also called hVISTA; human VISTA polypeptide", "test": "ELISA, target protein coated, % Binding against log M of antibody", "experimental": "as §1, §2"}, "human HER3": {"target": "human HER3 (human, UniProt P21860 20-643)", "test": "ELISA, target protein coated, % Binding against log M of antibody", "experimental": "as §1, §2"}, "[3]": {"target": "T3, recombinant human VISTA (His-tagged)", "test": "BLI (Octet), 1:1 global fit, His-tagged human VISTA captured"}, "human CD47": {"target": "T4, human CD47 (human, UniProt Q08722 19-139)", "T4 construct": "also called hCD47", "T4 sequence (Q08722 19-139 limits assumed)": "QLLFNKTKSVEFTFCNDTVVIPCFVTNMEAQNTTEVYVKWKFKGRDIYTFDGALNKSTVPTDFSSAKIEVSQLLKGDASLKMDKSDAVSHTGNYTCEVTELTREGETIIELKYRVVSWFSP", "test": "BLI (Octet), His-tagged hCD47 on anti-Penta-HIS biosensor, antibody 1500-46.9 nM", "experimental": "Finally, the biosensors were incubated for 120 sec in PBS pH 7.2 to obtain the dissociation curves. Kinetic and affinity constants were calculated by global fitting of the association and dissociation data to a 1:1 binding model."}, "[4]": {"target": "T3, recombinant human VISTA (His-tagged)", "test": "antigen-binding ELISA; HMBD-002 in F6, day 10 at 40°C"}, "[5]": {"target": "T3, recombinant human VISTA (His-tagged)", "test": "antigen-binding ELISA; HMBD-002 10 mg/mL in F3, day 0"}, "[6]": {"target": "T5, rat VISTA expressed on cells (rat, UniProt A0ABK0L5H3 33-310)", "T5 construct": "whole, on cells; also called rat VISTA on HEK293T cells; VISTA on rat CD11b+ myeloid cells", "T5 sequence": "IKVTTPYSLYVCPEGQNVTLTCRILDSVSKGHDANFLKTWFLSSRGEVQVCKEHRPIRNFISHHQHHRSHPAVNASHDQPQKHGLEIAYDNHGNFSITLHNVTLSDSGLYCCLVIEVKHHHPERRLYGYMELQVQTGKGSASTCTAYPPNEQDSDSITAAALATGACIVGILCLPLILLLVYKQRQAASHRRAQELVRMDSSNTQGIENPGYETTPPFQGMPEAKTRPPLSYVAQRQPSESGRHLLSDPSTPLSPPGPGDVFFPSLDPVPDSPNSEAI", "test": "flow cytometry, HEK293T cells expressing the VISTA ortholog", "experimental": "(§3) To identify myeloid cells, PBMCs were further incubated with CD45 FITC and CD11b PE. Cells were washed again and resuspended in 200 μL of FACS flow buffer (PBS with 5 mM EDTA) for flow cytometric analysis using MACSQuant 10 (Miltenyi). After acquisition, all raw data were analyzed using Flowlogic software. Cells were gated using forward and side scatter, and the percentage of positive cells was determined."}, "[7]": {"target": "T6, human VISTA expressed on cells (human, UniProt Q9H7M9 33-311)", "T6 construct": "also called HEK293 VISTA O/E; HEK293T or HEK293-6E cells overexpressing human VISTA", "test": "flow cytometry, HEK293T cells expressing the VISTA ortholog", "experimental": "as §3"}, "[8]": {"target": "T7, mouse VISTA expressed on cells (mouse, UniProt Q9D659 33-308)", "T7 construct": "whole, on cells; also called murine VISTA on transfected cells; VISTA on mouse CD11b+ myeloid cells", "T7 sequence (looked up)": "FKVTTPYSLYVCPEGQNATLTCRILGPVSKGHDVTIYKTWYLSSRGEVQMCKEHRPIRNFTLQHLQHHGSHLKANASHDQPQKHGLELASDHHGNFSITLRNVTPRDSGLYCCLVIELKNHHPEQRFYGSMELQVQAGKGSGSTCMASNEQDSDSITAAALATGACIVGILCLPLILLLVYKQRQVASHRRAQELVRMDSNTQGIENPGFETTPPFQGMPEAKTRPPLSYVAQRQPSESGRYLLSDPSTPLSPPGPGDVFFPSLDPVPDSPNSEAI", "test": "flow cytometry, HEK293T cells expressing the VISTA ortholog", "experimental": "as §3"}, "[9]": {"target": "T3, recombinant human VISTA (His-tagged)", "test": "antigen-binding ELISA; HMBD-002 10 mg/mL in F2, day 0"}, "[10]": {"target": "T3, recombinant human VISTA (His-tagged)", "test": "antigen-binding ELISA; HMBD-002 in F2, day 20 at 40°C"}, "[11]": {"target": "T3, recombinant human VISTA (His-tagged)", "test": "antigen-binding ELISA, day 30 at 40°C"}, "[12]": {"target": "T3, recombinant human VISTA (His-tagged)", "test": "antigen-binding ELISA; HMBD-002 in F1, day 30 at 40°C"}, "[13]": {"target": "T3, recombinant human VISTA (His-tagged)", "test": "antigen-binding ELISA; HMBD-002 in F1, day 20 at 40°C"}, "[14]": {"target": "T3, recombinant human VISTA (His-tagged)", "test": "antigen-binding ELISA; HMBD-002 in F3, day 10 at 40°C"}, "[15]": {"target": "T3, recombinant human VISTA (His-tagged)", "test": "antigen-binding ELISA; HMBD-002 in F8, day 20 at 40°C"}, "[16]": {"target": "T3, recombinant human VISTA (His-tagged)", "test": "antigen-binding ELISA; HMBD-002 in F10, day 10 at 40°C"}, "[17]": {"target": "T5, rat VISTA expressed on cells", "test": "flow cytometry, endogenous VISTA on CD11b+ myeloid cells of PBMCs", "experimental": "as §3"}, "[18]": {"target": "T7, mouse VISTA expressed on cells", "test": "flow cytometry, endogenous VISTA on CD11b+ myeloid cells of PBMCs", "experimental": "as §3"}}}
{"binder": "anti-VISTA clone 4M2-C12 IgG1 (antibody, mouse variable regions on human IgG1/kappa constant regions; also called V4; V4pr) heavy: not shown light: DIVITQTPAILSTSPGEKVTMTCRASSSVGYIHWYQQKPGSSPKPWIYATSNLASGVPARFSGSGSGTSNSLTITRVEAEDAATYYCQQWSSYPPITFGGGTKLEVKRTVAAPSVFIFPPSDEQLKSGTASVVCLLNNFYPREAKVQWKVDNALQSGNSQESVTEQDSKDSTYSLSSTLTLSKADYEKHKVYACEVTHQGLSSPVTKSFNRGEC", "values": [{"measurement": "EC50", "setting": "[1]", "value": 5930, "unit": "pM"}, {"measurement": "binding result", "setting": "human PD-L1", "value": "no binding (tested: about 10^-6.7 M (log M axis))"}, {"measurement": "EC50", "setting": "[2]", "value": 256, "unit": "pM"}, {"measurement": "binding result", "setting": "human HER3", "value": "no binding (tested: about 10^-6.2 M (log M axis))"}, {"measurement": "Kd", "setting": "[3]", "value": "< 1", "unit": "pM"}, {"measurement": "koff", "setting": "[3]", "value": "< 1e-07", "unit": "s⁻¹"}, {"measurement": "kon", "setting": "[3]", "value": 128000, "unit": "M⁻¹ s⁻¹"}, {"measurement": "binding result", "setting": "human CD47", "value": "no binding (tested: 1500 nM)"}]}
{"binder": "V4-C26 hIgG4 (antibody, human IgG4 (S228P)/kappa format; also called HMBD-002; HMBD-002-V4C26) heavy: not shown light: EIVLTQSPATLSLSPGERATLSCRASSSVGYIHWYQQKPGQAPRPIIYTTSNRATGIPARFSGSGSGTDNTLTISSLEPEDSAVYYCQQWSSYPPITFGGGTKLEVKRTVAAPSVFIFPPSDEQLKSGTASVVCLLNNFYPREAKVQWKVDNALQSGNSQESVTEQDSKDSTYSLSSTLTLSKADYEKHKVYACEVTHQGLSSPVTKSFNRGEC", "values": [{"measurement": "EC50", "setting": "[4]", "value": 30.6, "unit": "pM"}, {"measurement": "EC50", "setting": "[5]", "value": 30.8, "unit": "pM"}, {"measurement": "EC50", "setting": "[6]", "value": 4130, "unit": "pM"}, {"measurement": "EC50", "setting": "[7]", "value": 3740, "unit": "pM"}, {"measurement": "EC50", "setting": "[8]", "value": 8940, "unit": "pM"}, {"measurement": "EC50", "setting": "[9]", "value": 33.9, "unit": "pM"}, {"measurement": "EC50", "setting": "[10]", "value": 19.7, "unit": "pM"}, {"measurement": "fold increase in affinity", "setting": "[11]", "value": 1.65, "unit": "fold"}, {"measurement": "EC50", "setting": "[12]", "value": 21.5, "unit": "pM"}, {"measurement": "EC50", "setting": "[13]", "value": 17.2, "unit": "pM"}, {"measurement": "EC50", "setting": "[14]", "value": 34.8, "unit": "pM"}, {"measurement": "EC50", "setting": "[15]", "value": 24.8, "unit": "pM"}, {"measurement": "EC50", "setting": "[16]", "value": 28.1, "unit": "pM"}, {"measurement": "EC50", "setting": "[17]", "value": 48600, "unit": "pM"}, {"measurement": "EC50", "setting": "[18]", "value": 111000, "unit": "pM"}]}
